Data taken from paper PMC4932547, “Improved Aptamers for the Diagnosis and Potential Treatment of HER2-Positive Cancer”.

Biological target: HER2 extracellular domain (UniProt P04626 23-652)
Assay: SPRi; 5 mM Mg2+; negative aptamer spots subtracted; Selection buffer: 10 mM HEPES, 120 mM NaCl, 5 mM MgCl2, 5 mM KCl; pH not stated; SPRi temperature not stated (50 uL/min, 50 or 100 nM HER2, BSA-blocked chip); cell assays at 37 C
Details: protein: commercial

ATTAAGAACCATCACTCTTCCAAATGGATATACGACTGGG (ssDNA, 5' hexyl-disulfide) [HeA2_1] showed a Kd of 28.9 nM.

With TCTAAAAGGATTCTTCCCAAGGGGATCCAATTCAAACAGC (ssDNA, 5' hexyl-disulfide) [HeA2_3] the Kd was 6.2 nM.
